Columns and labels:
CRP (Vibrio cholerae) = molecular target: T1, CRP (Vibrio cholerae) (UniProt O34015); assay: EMSA; details: 40 mM Tris acetate pH 7.9, 50 mM KCl, 5 mM MgCl2, 500 uM DTT, 12.5 ug/ml herring sperm DNA; EMSA 15 min at 37 C
T1 sequence: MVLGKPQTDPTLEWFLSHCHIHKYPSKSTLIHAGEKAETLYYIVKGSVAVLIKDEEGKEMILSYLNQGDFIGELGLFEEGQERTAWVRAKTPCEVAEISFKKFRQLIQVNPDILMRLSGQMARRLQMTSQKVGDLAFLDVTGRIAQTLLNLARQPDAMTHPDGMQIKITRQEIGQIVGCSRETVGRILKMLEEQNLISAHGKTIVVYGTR

AphA (Vibrio cholerae) = molecular target: T2, AphA (Vibrio cholerae) (UniProt Q9X399); assay: EMSA; details: 40 mM Tris acetate pH 7.9, 50 mM KCl, 5 mM MgCl2, 500 uM DTT, 12.5 ug/ml herring sperm DNA; EMSA 15 min at 37 C
T2 sequence: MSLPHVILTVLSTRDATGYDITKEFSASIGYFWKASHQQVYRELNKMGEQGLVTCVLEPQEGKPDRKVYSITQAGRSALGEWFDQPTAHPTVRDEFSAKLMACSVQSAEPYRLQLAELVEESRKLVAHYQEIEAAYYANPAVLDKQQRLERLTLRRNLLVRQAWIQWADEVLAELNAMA

Row | Sequence | binding (CRP (Vibrio cholerae)) | binding (AphA (Vibrio cholerae))
1 | AATTCTAGAGGAGCAACAAAAAATTGACGCTGTGATACTGGTCTCATAATCTGGCGCAAAAGTATTGCATCGATGTGAGATAAGTCCAGACTTATTTCTCTTCGTAAACTATCATTAGCTTCATAAAACAAGCA / AGCTTGCTTGTTTTATGAAGCTAATGATAGTTTACGAAGAGAAATAAGTCTGGACTTATCTCACATCGATGCAATACTTTTGCGCCAGATTATGAGACCAGTATCACAGCGTCAATTTTTTGTTGCTCCTCTAG [tfoX promoter wild type] | binds | binds
2 | AATTCCATTTCCCAAAATCCTTTGCAAACCGTGAGAGGATGATGAATCAACTTGCATAGATGCTAACAGCTATCAAAAATGGCGTTGTTTTATAAAGAGAAGTAATGGAAATGA / AGCTTCATTTCCATTACTTCTCTTTATAAAACAACGCCATTTTTGATAGCTGTTAGCATCTATGCAAGTTGATTCATCATCCTCTCACGGTTTGCAAAGGATTTTGGGAAATGG [VC0857-VC0858 intergenic region] |  | binds

From article PMC6855506
